Data taken from publication PMC13031064.

B1: CYP76AH1 probe (dsDNA)
DNA 1: TATAATAGAACATTTGGGCGATGCTATATAATAGAACATTTGGGCGATGCTA
DNA 2: TAGCATCGCCCAAATGTTCTATTATATAGCATCGCCCAAATGTTCTATTATA
B2: KSL1 probe (dsDNA)
DNA 1: TGCATCATCTCATTTGGAGTTTAAAATGCATCATCTCATTTGGAGTTTAAAA
DNA 2: TTTTAAACTCCAAATGAGATGATGCATTTTAAACTCCAAATGAGATGATGCA
B3: CPS1 probe (dsDNA)
DNA 1: AATCATTTTTCATTTGACTGCCAAGGTAATCATTTTTCATTTGACTGCCAAGGT
DNA 2: ACCTTGGCAGTCAAATGAAAAATGATTACCTTGGCAGTCAAATGAAAAATGATT
B4: DXS2 probe (dsDNA)
DNA 1: TAAATCCTGACATTTGAATAGTATATTAAATCCTGACATTTGAATAGTATAT
DNA 2: ATATACTATTCAAATGTCAGGATTTAATATACTATTCAAATGTCAGGATTTA

biological target: bHLH130-His (SmbHLH130) (Salvia miltiorrhiza, UniProt A0A0H3Y8V8 1-394); test: EMSA

Binding result, binds:
B1, B2, B3, B4
